In assay [1] the target is T1, Strep-Tag II-GM130, purified (human, UniProt Q08379 1-1002).
T1 construct: human GM130 isoform 1; also called Strep II-GM130; purified GM130; source: purified
T1 sequence (looked up): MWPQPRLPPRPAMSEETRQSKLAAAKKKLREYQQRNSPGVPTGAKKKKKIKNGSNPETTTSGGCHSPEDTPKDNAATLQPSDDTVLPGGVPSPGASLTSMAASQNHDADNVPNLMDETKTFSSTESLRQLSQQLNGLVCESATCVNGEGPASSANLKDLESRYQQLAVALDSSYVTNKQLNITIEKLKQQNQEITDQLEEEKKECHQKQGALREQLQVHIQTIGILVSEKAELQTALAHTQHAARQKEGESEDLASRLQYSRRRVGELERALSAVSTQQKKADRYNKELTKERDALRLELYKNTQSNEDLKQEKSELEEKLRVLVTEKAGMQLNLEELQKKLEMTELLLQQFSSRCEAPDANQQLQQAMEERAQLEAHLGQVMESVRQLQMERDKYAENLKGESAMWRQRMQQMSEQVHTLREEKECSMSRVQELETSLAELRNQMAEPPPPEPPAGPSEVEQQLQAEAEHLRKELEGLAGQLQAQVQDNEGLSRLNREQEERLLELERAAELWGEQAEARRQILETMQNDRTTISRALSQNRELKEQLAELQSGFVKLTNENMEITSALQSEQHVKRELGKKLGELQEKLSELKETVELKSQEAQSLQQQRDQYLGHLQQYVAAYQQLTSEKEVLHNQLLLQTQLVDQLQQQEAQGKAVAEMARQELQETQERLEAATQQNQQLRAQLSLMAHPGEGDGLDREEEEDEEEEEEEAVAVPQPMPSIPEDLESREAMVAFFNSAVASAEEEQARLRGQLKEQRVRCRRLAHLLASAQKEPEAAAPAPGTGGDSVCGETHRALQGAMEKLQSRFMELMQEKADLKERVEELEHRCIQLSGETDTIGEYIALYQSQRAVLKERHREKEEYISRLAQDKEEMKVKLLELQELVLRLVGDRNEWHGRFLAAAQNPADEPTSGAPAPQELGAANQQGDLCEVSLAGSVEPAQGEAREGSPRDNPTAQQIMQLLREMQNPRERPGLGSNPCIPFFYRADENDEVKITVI
Nature of the assay: pull-down; GST-WAC FL or ΔCC incubated with purified Strep-Tag II-GM130; GST-WAC monitored by Ponceau S. To be noted: both partners purified.

The target in assay [2] is T1, Strep-Tag II-GM130, purified. Put plainly: pull-down; purified Strep II-GM130 incubated with recombinant WAC 320–647 before binding to recombinant GST or GST-GABARAP beads, immunoblot. Particulars: both partners purified. In general terms: In western blotting, separated proteins are transferred to a membrane and probed.

These results are taken from publication PMC4691241, “Activation of ULK Kinase and Autophagy by GABARAP Trafficking from the Centrosome Is Regulated by WAC and GM130” (Molecular Cell, 2015).

B1: GST-WAC FL (natural protein, human, UniProt Q9BTA9 1-647, looked up)
chain: MVMYARKQQRLSDGCHDRRGDSQPYQALKYSSKSHPSSGDHRHEKMRDAGDPSPPNKMLRRSDSPENKYSDSTGHSKAKNVHTHRVRERDGGTSYSPQENSHNHSALHSSNSHSSNPSNNPSKTSDAPYDSADDWSEHISSSGKKYYYNCRTEVSQWEKPKEWLEREQRQKEANKMAVNSFPKDRDYRREVMQATATSGFASGMEDKHSSDASSLLPQNILSQTSRHNDRDYRLPRAETHSSSTPVQHPIKPVVHPTATPSTVPSSPFTLQSDHQPKKSFDANGASTLSKLPTPTSSVPAQKTERKESTSGDKPVSHSCTTPSTSSASGLNPTSAPPTSASAVPVSPVPQSPIPPLLQDPNLLRQLLPALQATLQLNNSNVDISKINEVLTAAVTQASLQSIIHKFLTAGPSAFNITSLISQAAQLSTQAQPSNQSPMSLTSDASSPRSYVSPRISTPQTNTVPIKPLISTPPVSSQPKVSTPVVKQGPVSQSATQQPVTADKQQGHEPVSPRSLQRSSSQRSPSPGPNHTSNSSNASNATVVPQNSSARSTCSLTPALAAHFSENLIKHVQGWPADHAEKQASRLREEAHNMGTIHMSEICTELKNLRSLVRVCEIQATLREQRILFLRQQIKELEKLKNQNSFMV
notes: human WAC isoform 1, full length; also called recombinant GST-WAC; source: recombinant
As for B1, the binding result in assay [1] is “binds”.

B2: recombinant WAC 320–647 (domain or fragment, human, UniProt Q9BTA9 320-647, looked up)
chain: TTPSTSSASGLNPTSAPPTSASAVPVSPVPQSPIPPLLQDPNLLRQLLPALQATLQLNNSNVDISKINEVLTAAVTQASLQSIIHKFLTAGPSAFNITSLISQAAQLSTQAQPSNQSPMSLTSDASSPRSYVSPRISTPQTNTVPIKPLISTPPVSSQPKVSTPVVKQGPVSQSATQQPVTADKQQGHEPVSPRSLQRSSSQRSPSPGPNHTSNSSNASNATVVPQNSSARSTCSLTPALAAHFSENLIKHVQGWPADHAEKQASRLREEAHNMGTIHMSEICTELKNLRSLVRVCEIQATLREQRILFLRQQIKELEKLKNQNSFMV
notes: human WAC isoform 1, residues 320-647 (the C-terminal half, CT); source: recombinant
In the case of B2, in assay [2], the binding result was “binds”.
